{"source": "paper PMC7144518", "about": "“Tumor-derived soluble CD155 inhibits DNAM-1–mediated antitumor activity of natural killer cells” (The Journal of Experimental Medicine, 2020)", "binders": {"B1": {"name": "mouse TIGIT Fc fusion protein (Fc fusion)", "chain": "TIDTKRNISAEEGGSVILQCHFSSDTAEVTQVDWKQQDQLLAIYSVDLGWHVASVFSDRVVPGPSLGLTFQSLTMNDTGEYFCTYHTYPGGIYKGRIFLKVQESSDDRNGLAQFQTAPLG"}, "B2": {"name": "mouse DNAM-1 Fc fusion protein (Fc fusion)", "chain": "EETLWDTTVRLSETMTLECVYPLTHNLTQVEWTKNTGTKTVSIAVYNPNHNMHIESNYLHRVHFLNSTVGFRNMSLSFYNASEADIGIYSCLFHAFPNGPWEKKIKVVWSDSFEIAAPSDSYLSAEPGQDVTLTCQLPRTWPVQQVIWEKVQPHQVDILASCNLSQETRYTSKYLRQTRSNCSQGSMKSILIIPNAMAADSGLYRCRSEAITGKNKSFVIRLIITDGGTNKHFILP"}, "B3": {"name": "human DNAM-1 Fc fusion protein (Fc fusion, UniProt Q15762 19-254, looked up)", "chain": "EEVLWHTSVPFAENMSLECVYPSMGILTQVEWFKIGTQQDSIAIFSPTHGMVIRKPYAERVYFLNSTMASNNMTLFFRNASEDDVGYYSCSLYTYPQGTWQKVIQVVQSDSFEAAVPSNSHIVSEPGKNVTLTCQPQMTWPVQAVRWEKIQPRQIDLLTYCNLVHGRNFTSKFPRQIVSNCSHGRWSVIVIPDVTVSDSGLYRCYLQASAGENETFVMRLTVAEGKTDNQYTLFVA", "notes": "human DNAM-1 (DNAX accessory molecule 1, CD226), extracellular portion; source: bought: R&D Systems"}, "B4": {"name": "mouse CD96 Fc fusion protein (Fc fusion)", "chain": "VWEELFNVGDDVYALPGSDINLTCQTKEKNFLVQMQWSKVTDKNDMIALYHPQYGLYCGQEHACESQVAATETEKGVTNWTLYLRNISSALGGKYECIFTLYPEGIKTTVYNLIVEPYTQDEHNYTIEIETNRTLEIPCFQNTSSEIPPRFTFSWLVEKDGVEEVLFTHHHHVNNSTSFKGRIRLGGDYRLHLSPVQIQDDGRTFSCHLTVNPLKAWKMSTTVKVFAKPEILMTVENSTMDVLGERVFTCLLKNVFPKANITWFIDGRFLQGNEEGIYITNEEKNCSSGFWELKSVLTRMHSGPSQSNNMTAWCMALSPGPRNKMWNTSSQPITVSFDSVIAPTKHLPTVTGSTLGTQPFSDAGVSPTGYLATPSVTIVDENGLTPDATPQTSNSSMTTKDGNYLEASSGTDAKNSSRAAASSKSGSWPFPFTSPPEWHSLPGTSTGPQEPDSPVSWIPSEVHTSAPLDASLAPHDTIISTTTEFPNVLTTANGTTKIDHGPITSIIVNQPSDGM"}, "B5": {"name": "human TIGIT Fc fusion protein (Fc fusion, UniProt Q495A1 22-141, looked up)", "chain": "MMTGTIETTGNISAEKGGSIILQCHLSSTTAQVTQVNWEQQDQLLAICNADLGWHISPSFKDRVAPGPGLGLTLQSLTVNDTGEYFCIYHTYPDGTYTGRIFLEVLESSVAEHGARFQIP", "notes": "human TIGIT, extracellular portion; source: bought: R&D Systems"}}, "key": {"[1]": {"molecular_target": "T1, extracellular portion of mouse CD155 tagged with His protein at the C terminus (mouse)", "T1 chain": "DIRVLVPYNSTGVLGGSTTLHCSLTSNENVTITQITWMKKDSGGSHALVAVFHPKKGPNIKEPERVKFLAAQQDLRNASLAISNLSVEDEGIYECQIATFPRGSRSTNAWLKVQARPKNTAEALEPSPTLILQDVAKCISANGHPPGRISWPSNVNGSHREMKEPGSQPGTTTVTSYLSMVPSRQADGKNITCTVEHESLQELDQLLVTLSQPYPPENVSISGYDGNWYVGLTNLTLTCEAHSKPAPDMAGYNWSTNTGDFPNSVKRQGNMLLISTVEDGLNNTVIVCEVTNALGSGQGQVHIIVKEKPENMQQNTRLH", "experiment": "BLI"}, "[2]": {"molecular_target": "T2, extracellular portion of human CD155 tagged with His protein at the C terminus (human, UniProt P15151 21-343)", "T2 chain": "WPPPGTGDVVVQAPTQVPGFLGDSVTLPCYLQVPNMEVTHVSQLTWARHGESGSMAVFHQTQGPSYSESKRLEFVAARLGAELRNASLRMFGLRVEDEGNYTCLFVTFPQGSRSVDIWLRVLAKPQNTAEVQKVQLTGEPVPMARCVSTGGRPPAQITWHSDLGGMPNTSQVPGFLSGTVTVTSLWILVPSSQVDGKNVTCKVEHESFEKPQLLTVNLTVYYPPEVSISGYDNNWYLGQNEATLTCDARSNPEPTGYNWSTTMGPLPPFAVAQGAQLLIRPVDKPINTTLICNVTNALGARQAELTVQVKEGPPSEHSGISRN", "experiment": "BLI"}, "[3]": {"molecular_target": "T3, extracellular portion of human CD155 tagged with His protein at the C terminus (human, UniProt P15151 21-343)", "T3 construct": "human CD155 (poliovirus receptor, nectin-like protein-5), extracellular portion; R&D Systems\"); also called sCD155-His; human His-tagged sCD155; source: bought: R&D Systems; not shown: His, C-terminal, kept", "T3 sequence (looked up)": "T2 chain", "experiment": "BLI; His-tagged recombinant CD155 (20 µg/ml) loaded on a Ni-NTA biosensor; Fc fusion proteins as analytes at three concentrations; kinetics buffer; association 120 s, dissociation 120 s; global mode of BLItz", "details": "both partners purified"}}, "data": [{"binder": "B1", "values": [{"measurement": "Kd", "setting": "[1]", "result": 22.4, "unit": "nM"}]}, {"binder": "B2", "values": [{"measurement": "Kd", "setting": "[1]", "result": 8.83, "unit": "nM"}]}, {"binder": "B3", "values": [{"measurement": "Kd", "setting": "[2]", "result": 3.56, "unit": "nM"}, {"measurement": "binding result", "setting": "[3]", "result": "binds"}]}, {"binder": "B4", "values": [{"measurement": "Kd", "setting": "[1]", "result": 29.7, "unit": "nM"}]}, {"binder": "B5", "values": [{"measurement": "Kd", "setting": "[2]", "result": 15.2, "unit": "nM"}, {"measurement": "binding result", "setting": "[3]", "result": "binds"}]}]}
